According to article PMC3059893 (Biochemistry, 2011):
Like-named read-outs stand apart in the source and are kept apart here.

T1: Neurexin1 (Homo sapiens)
T1 chain: NKDKEYYV

T2: Caspr4 (Homo sapiens)
T2 chain: ENQKEYFF

T3: Tiam1 peptide 2
T3 chain: YAAEKYWA

T4: Model peptide
T4 chain: SSRKEYYA

T5: Syndecan1 (Homo sapiens)
T5 chain: TKQEEFYA

T6: Tiam1 peptide 1
T6 chain: YAAYRYRA

T7: Tiam2 peptide 3
T7 chain: YAALIHKF

T8: Tiam1 peptide 3
T8 chain: YAAKAFRF

T9: Tiam2 peptide 2
T9 chain: YAAGRKHF


Tests used:
Syndecan1 (Homo sapiens) = assay: fluorescence anisotropy; settings: cited from earlier work
Neurexin1 (Homo sapiens) = settings: cited from earlier work
Model peptide [1] = assay: NMR titration; settings: cited from earlier work
Neurexin1 = biological target: T1, Neurexin1; assay: fluorescence anisotropy
Caspr4 = biological target: T2, Caspr4; assay: fluorescence anisotropy
Tiam1 peptide 2 = biological target: T3, Tiam1 peptide 2; assay: fluorescence anisotropy
Model peptide [2] = biological target: T4, Model peptide; assay: fluorescence anisotropy
Syndecan1 = biological target: T5, Syndecan1; assay: fluorescence anisotropy
Tiam1 peptide 1 = biological target: T6, Tiam1 peptide 1; assay: fluorescence anisotropy
Tiam2 peptide 3 = biological target: T7, Tiam2 peptide 3; assay: fluorescence anisotropy
Tiam1 peptide 3 = biological target: T8, Tiam1 peptide 3; assay: fluorescence anisotropy
Tiam2 peptide 2 = biological target: T9, Tiam2 peptide 2; assay: fluorescence anisotropy

Row | Kd (Neurexin1) [µM] | Kd (Caspr4) [µM] | Kd (Tiam1 peptide 2) [µM] | Kd (Model peptide [2]) [µM] | Kd (Syndecan1) [µM] | Kd (Tiam1 peptide 1) [µM] | Kd (Tiam2 peptide 3) [µM] | Kd (Tiam1 peptide 3) [µM] | Kd (Tiam2 peptide 2) [µM] | Molecule | Kd (Syndecan1 (Homo sapiens)) [µM] | Kd (Neurexin1 (Homo sapiens)) [µM] | Kd (Model peptide [1]) [µM]
1 |  |  |  |  |  |  |  |  |  | Tiam1 PDZ (from UniProt Q13009) | 26.9 | 2400 | 112
2 | 5 | 3.4 | 10.9 | 24.1 | 200 | 22.5 | 28.7 | 7.7 | 9.9 | Tiam2 PDZ (protein) NVYDVQLTKTGSVCDFGFAVTAQVDERQHLSRIFISDVLPDGLAYGEGLRKGNEIMTLNGEAVSDLDLKQMEALFSEKSVGLTLIARPPDTKA |  |  | 
3 |  | 19 | 90.3 |  |  |  |  | 200 |  | Tiam1 PDZ (protein) VTQSIHIEKSDTAADTYGFSLSSVEEDGIRRLYVNSVKETGLASKKGLKAGDEILEINNRAADALNSSML |  |  | 
